In patent US20240392002A1 (EXELIXIS, published 2024):

Tests used:
[1] = biological target: T1, cynomolgus CD3 delta and epsilon heterodimer (cynomolgus, UniProt Q95LI5 22-117; Q95LI8 22-105); assay: BLI (Octet QK384), monovalent format: B-body captured on Fc biosensor, untagged antigen as analyte
T1 construct: untagged monomer of the antigen in solution
Protocol: (§1) More specifically, monovalent binding affinity analysis was performed using the Octet^QK 384 (ForteBio) using Fc biosensors. Unlabeled B-body™ is first bound to the Fc biosensor at a concentration to yield approximately 1 nm response (typically 10 to 50 nM protein). The biosensors are then equilibrated in 10× Kinetic Buffer (ForteBio) to establish a baseline. The untagged monomer of each antigen is contacted with the antibody-coated sensors at concentrations ranging from 50 nm to 0.75 nM. The association response and dissociation were monitored and recorded. The resulting Kₒₙ and Koff was fit using the Octet analysis software.

[2] = biological target: T2, extracellular domain of human ROR1 (human, UniProt Q01973 30-406); assay: BLI (Octet QK384), bivalent format: biotinylated antigen on streptavidin biosensor, 1x2 B-body as analyte
T2 construct: bought protein; biotinylated in the bivalent assay format; also called Acro Cat. No. RO1-H522y
T2 sequence (Q01973 30-406 limits assumed): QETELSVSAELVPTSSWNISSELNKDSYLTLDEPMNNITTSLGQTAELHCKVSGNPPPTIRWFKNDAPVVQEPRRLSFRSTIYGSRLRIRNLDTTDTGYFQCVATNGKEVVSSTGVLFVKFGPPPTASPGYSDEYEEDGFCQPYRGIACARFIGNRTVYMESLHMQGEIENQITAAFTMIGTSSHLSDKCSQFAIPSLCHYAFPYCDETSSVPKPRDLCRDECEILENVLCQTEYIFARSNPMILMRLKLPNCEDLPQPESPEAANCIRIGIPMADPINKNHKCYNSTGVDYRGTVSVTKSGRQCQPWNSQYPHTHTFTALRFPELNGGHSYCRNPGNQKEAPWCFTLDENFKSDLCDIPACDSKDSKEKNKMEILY
Protocol: (§2) Bivalent binding analysis was performed using the Octet^QK 384 (ForteBio) using streptavidin biosensors. Biotinylated antigen was first bound to the streptavidin biosensor at a concentration to yield approximately 1 nm response (typically 10 to 50 nM biotinylated protein). The biosensors were then equilibrated in 10× Kinetic Buffer (ForteBio) to establish a baseline. The 1×2 B-body™ was contacted with the antigen-coated sensors at concentrations ranging from 50 nm to 0.75 nM. The association response and dissociation were monitored and recorded. The resulting Kₒₙ and Koff was fit using the Octet analysis software.

[3] = biological target: T1, cynomolgus CD3 delta and epsilon …; assay: BLI, B-body on Fc biosensor, antigen monomer 50 nM to 0.75 nM
Protocol: as §1

[4] = biological target: T2, extracellular domain of human ROR1; assay: BLI (Octet QK384), monovalent format: B-body captured on Fc biosensor, untagged antigen as analyte
Protocol: as §1
(§3) Monovalent binding analysis was performed as described above and the antibody was captured with an Fc sensor and contacted with the indicated antigen for the association phase followed by a dissociation phase in buffer only.

[5] = biological target: T2, extracellular domain of human ROR1; assay: BLI, monovalent format, B-body on Fc biosensor, soluble antigen
Protocol: as §1, §3

[6] = biological target: T2, extracellular domain of human ROR1; assay: BLI, bivalent format, biotinylated antigen on streptavidin biosensor, B-body 50 nM to 0.75 nM
Protocol: as §2

[7] = biological target: T2, extracellular domain of human ROR1; assay: BLI (Octet QK384), bivalent format: biotinylated antigen on streptavidin biosensor, 1x2 B-body as analyte; remark: listed apart in the source
Protocol: as §2
(§4) Next, the binding of the antibody to ROR1 and ROR2 was assessed using the monovalent and bivalent BLI binding assessments as described in Example 24.

[8] = biological target: T3, extracellular domain of human ROR2 (human, UniProt Q01974 34-403); assay: as above
T3 construct: bought protein; biotinylated in the bivalent assay format; also called Acro Cat. No. RO2-H52E5
T3 sequence (Q01974 34-403 limits assumed): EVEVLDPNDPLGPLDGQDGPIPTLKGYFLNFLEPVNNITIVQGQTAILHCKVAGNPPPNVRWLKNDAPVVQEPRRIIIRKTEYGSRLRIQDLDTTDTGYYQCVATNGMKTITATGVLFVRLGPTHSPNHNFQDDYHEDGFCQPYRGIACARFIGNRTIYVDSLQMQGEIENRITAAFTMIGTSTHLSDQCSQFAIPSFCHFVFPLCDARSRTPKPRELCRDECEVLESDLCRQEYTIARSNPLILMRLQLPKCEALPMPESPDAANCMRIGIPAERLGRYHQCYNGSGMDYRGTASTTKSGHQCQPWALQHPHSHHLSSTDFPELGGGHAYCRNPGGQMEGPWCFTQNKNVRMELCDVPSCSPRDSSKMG
Protocol: as §2, §4

[9] = biological target: T1, cynomolgus CD3 delta and epsilon …; assay: BLI, monovalent format, B-body on Fc biosensor
Protocol: as §1

[10] = biological target: T2, extracellular domain of human ROR1; assay: BLI, bivalent format, biotinylated antigen on streptavidin biosensor
Protocol: as §2, §4

[11] = biological target: T3, extracellular domain of human ROR2; assay: as above
Protocol: as §2, §4

[12] = biological target: T2, extracellular domain of human ROR1; assay: BLI, monovalent format
Protocol: as §1, §4

[13] = biological target: T3, extracellular domain of human ROR2; assay: BLI, monovalent format
Protocol: as §1, §4

[14] = biological target: T2, extracellular domain of human ROR1; assay: BLI (Octet QK384), monovalent format: B-body captured on Fc biosensor, untagged antigen as analyte; remark: listed apart in the source
Protocol: as §1, §3, §4

[15] = biological target: T3, extracellular domain of human ROR2; assay: as above
Protocol: as §1, §3, §4

[16] = biological target: T2, extracellular domain of human ROR1; assay: BLI (Octet QK384), monovalent format: antibody captured on Fc biosensor, untagged antigen as analyte
[17] = biological target: T2, extracellular domain of human ROR1; assay: BLI (Octet), IgG1, two-fold serial dilution 200-12.5 nM
Text: To measure binding affinity in ROR binder discovery campaigns, the VL and VH domains identified in the phage screen described above were formatted into a bivalent monospecific native human full-length IgG1 architecture and immobilized to a biosensor on an Octet (Pall ForteBio) biolayer interferometer. Soluble ROR antigens, including the extracellular domains of ROR1 (Acro Cat. No. RO1-H522γ) and ROR2 (Acro Cat. No. R02-H52E5), as well as the individual ROR1 Frizzled (Acro Cat. No. RO1-H5222), Ig-like (Acro Cat. No. RO1-H5221), and Kringle (Acro Cat. No. RO1-H5223) domains, were then added to the system and binding measured.
The VH and VL sequences above were formatted into a bivalent monospecific native human full-length IgG1 architecture.

[18] = biological target: T2, extracellular domain of human ROR1; assay: BLI, monovalent format, IgG on Fc biosensor

T1 sequence (Q95LI5 22-117, stated change not applied, chain 1 of 2): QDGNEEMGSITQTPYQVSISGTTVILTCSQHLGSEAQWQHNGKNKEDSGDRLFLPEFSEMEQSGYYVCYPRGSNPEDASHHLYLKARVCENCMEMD
T1 sequence (Q95LI8 22-105, stated change not applied, chain 2 of 2): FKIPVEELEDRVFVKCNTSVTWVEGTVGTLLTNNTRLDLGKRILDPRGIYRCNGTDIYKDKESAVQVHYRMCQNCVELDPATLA

B1: I2-A27 1×2 B-body™ bispecific antibody (ROR1xCD3) (bispecific antibody)
chain 1: DIQMTQSPSSLSASVGDRVTITCRASQSVSSAVAWYQQKPGKAPKLLIYSASSLYSGVPSRFSGSRSGTDFTLTISSLQPEDFATYYCQQYYSSPRTFGQGTKVEIKRTPREPQVYTLPPSRDELTKNQVSLKCLVKGFYPSDIAVEWESNGQPENNYKTTPPVLDSDGSFFLYSKLTVDKSRWQQGNVFSCSVMHEALHNHYTQKSLSLSKSCDKTHTCPPCPAPEAAGGPSVFLFPPKPKDTLMISRTPEVTCVVVDVSHEDPEVKFNWYVDGVEVHNAKTKPREEQYNSTYRVVSVLTVLHQDWLNGKEYKCKVSNKALKAPIEKTISKAKGQPREPQVCTLPPSREEMTKNQVSLSCAVKGFYPSDIAVEWESNGQPENNYKTTPPVLDSDGSFFLVSKLTVDKSRWQQGNVFSCSVMHEALHNHYTQKSLSLSPGK
chain 2: EVQLVESGGGLVQPGGSLRLSCAASGFTFKGYYIHWVRQAPGKGLEWVAAIYPYGGSTDYADSVKGRFTISADTSKNTAYLQMNSLRAEDTAVYYCARVYIYGVFDYWGQGTLVTVSSASPREPQVYTDPPSRDELTKNQVSLTCLVKGFYPSDIAVEWESNGQPENNYKTTPPVLDSDGSFFLYSKLTVDKSRWQQGNVFSCSVMHEALHNHYTQKSLSLSGEC
chain 3: not shown
chain 4: EVQLVESGGGLVQPGGSLRLSCAASGFTFNTYAMNWVRQAPGKGLEWVARIRSKYNNYATYYADSVKGRFSISRDDSKNTAYLQMNSLRAEDTAVYYCVRHGNFGNSYVSWFAYWGQGTLVTVSSASTKGPSVFPLAPSSKSTSGGTAALGCLVKDYFPEPVTVSWNSGALTSGVHTFPAVLQSSGLYSLSSVVTVPSSSLGTQTYICNVNHKPSNTKVDKKVEPPKSC
notes: two ROR sites, one SP34-89 CD3 site; chain 5 is the same as chain 2; also called I2A-27 BC1 1×2
With B1 the koff [1] was 0.00032 s⁻¹, the kon [1] was 110000 M⁻¹ s⁻¹ and the koff [2] was 3.5e-05 s⁻¹. It also gave a kon [2] of 490000 M⁻¹ s⁻¹, a Kd [3] of 3 nM and a koff [4] of 0.0026 s⁻¹. For the same binder, the kon [4] was 680000 M⁻¹ s⁻¹, the Kd [5] was 3.8 nM and the Kd [6] was 0.71 nM.

B2: I2-A10 D54E Y55Q 1×2 B-body™ (ROR1/ROR2xCD3) (bispecific antibody)
chain 1: DIQMTQSPSSLSASVGDRVTITCRASQSVSSAVAWYQQKPGKAPKLLIYSASSLQSGVPSRFSGSRSGTDFTLTISSLQPEDFATYYCQQYYYYPGTFGQGTKVEIKRTPREPQVYTLPPSRDELTKNQVSLKCLVKGFYPSDIAVEWESNGQPENNYKTTPPVLDSDGSFFLYSKLTVDKSRWQQGNVFSCSVMHEALHNHYTQKSLSLSKSCDKTHTCPPCPAPEAAGGPSVFLFPPKPKDTLMISRTPEVTCVVVDVSHEDPEVKFNWYVDGVEVHNAKTKPREEQYNSTYRVVSVLTVLHQDWLNGKEYKCKVSNKALKAPIEKTISKAKGQPREPQVCTLPPSREEMTKNQVSLSCAVKGFYPSDIAVEWESNGQPENNYKTTPPVLDSDGSFFLVSKLTVDKSRWQQGNVFSCSVMHEALHNHYTQKSLSLSPGK
chain 2: EVQLVESGGGLVQPGGSLRLSCAASGFTFSSYFIHWVRQAPGKGLEWVAGIYPSEGYTSYADSVKGRFTISADTSKNTAYLQMNSLRAEDTAVYYCARYYVSGMDYWGQGTLVTVSSASPREPQVYTDPPSRDELTKNQVSLTCLVKGFYPSDIAVEWESNGQPENNYKTTPPVLDSDGSFFLYSKLTVDKSRWQQGNVFSCSVMHEALHNHYTQKSLSLSGEC
chain 3: not shown
chain 4: EVQLVESGGGLVQPGGSLRLSCAASGFTFNTYAMNWVRQAPGKGLEWVARIRSKYNNYATYYADSVKGRFSISRDDSKNTAYLQMNSLRAEDTAVYYCVRHGNFGNSYVSWFAYWGQGTLVTVSSASTKGPSVFPLAPSSKSTSGGTAALGCLVKDYFPEPVTVSWNSGALTSGVHTFPAVLQSSGLYSLSSVVTVPSSSLGTQTYICNVNHKPSNTKVDKKVEPPKSC
notes: two ROR sites, one SP34-89 CD3 site; chain 5 is the same as chain 2; also called I2A-10 D54E Y55Q BC1 1×2
Work on B2 yielded a koff [1] of 0.00063 s⁻¹, a kon [1] of 180000 M⁻¹ s⁻¹ and a koff [7] of 1.1e-05 s⁻¹. For the same binder, the kon [7] was 510000 M⁻¹ s⁻¹, the Kd [8] was 0.0033 nM and the kon [8] was 1.4e+06 M⁻¹ s⁻¹. The Kd [9] was 3.5 nM, the Kd [10] was 0.021 nM and the Kd [11] was 0.003 nM. The Kd [12] was 0.46 nM, the Kd [13] was less than 0.001 nM and the koff [14] was 0.00023 s⁻¹. For the same binder, the kon [14] was 480000 M⁻¹ s⁻¹, the koff [15] was less than 1e-07 s⁻¹ and the kon [15] was 140000 M⁻¹ s⁻¹.

B3: I2A-27 IgG1 (antibody, V domains shown)
VH: EVQLVESGGGLVQPGGSLRLSCAASGFTFKGYYIHWVRQAPGKGLEWVAAIYPYGGSTDYADSVKGRFTISADTSKNTAYLQMNSLRAEDTAVYYCARVYIYGVFDYWGQGTLVTVSS
VL: DIQMTQSPSSLSASVGDRVTITCRASQSVSSAVAWYQQKPGKAPKLLIYSASSLYSGVPSRFSGSRSGTDFTLTISSLQPEDFATYYCQQYYSSPRTFGQGTKVEIKR
notes: bivalent monospecific native human full-length IgG1; the Domain F / Domain A entries end with AS / RT of the junction to the constant domain; also called clone I2-A27; I2-A27 IgG antibody
In the case of B3, the koff [16] is reported as 0.0026 s⁻¹, the kon [16] is reported as 940000 M⁻¹ s⁻¹ and the Kd [17] is reported as 4.1 nM. For the same binder, the koff [17] was 0.00185 s⁻¹, the kon [17] was 511000 M⁻¹ s⁻¹ and the Kd [18] was 2.8 nM.
